Assays:
[1] = system: MS2 coat protein; experiment: apparent KD of MS2 coat protein, switch ON state; designed switch direction (-1 OFF switch, 1 ON switch): 1; higher = weaker reporter binding; conditions: FMN input: 0 or 200 uM; Eterna round: R93 (includes R88 designs)
Outline: (§1)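 In 100 mM Tris-HCl pH 7.5 with 80 mM KCl and 4 mM MgCl2, and without or with constant ligand, SNAP-549-labelled MS2 coat protein was titrated in twofold steps from 0.7 or 1.5 nM to 3 µM. Per-step times went from 0.8–1.5 h down to 10–20 min. The RNA switches were transcribed on-chip from Illumina sequencing clusters, and apparent KD is the per-design median of normalised cluster binding-curve fits.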

[2] = system: MS2 coat protein; experiment: apparent KD of MS2 coat protein, switch OFF state (with FMN for OFF switches, without FMN for ON switches); designed switch direction (-1 OFF switch, 1 ON switch): 1; higher = weaker reporter binding; conditions: FMN input: 0 or 200 uM; Eterna round: R93 (includes R88 designs)
Outline: as §1

Row | Sequence | apparent KD of MS2 coat protein [1] | apparent KD of MS2 coat protein [2]
1 | AAGAAACAUGAGGAUCACCCAUGUAAGAUAAACACAGGAUAUGCGAAAUAAAUAAAUAAAGCAGAAGGGUGAAGAA [Mat - Same State 1 - Tesla mod - D149] | 6.88 nM | 19.4 nM
2 | AAGAAACAUGAGGAUCACCCAUGUACCCAAAAGGGAGGAUAUCCGAAAGAAAGAAAGAAAGGAGAAGGCCCAUGAA [Xerxes II] | 12.6 nM | 34.2 nM
3 | AAGAAACAUGAGGAUCACCCAUGUAGAAACAUGGGAGGAUAUACGAAGACGAAAGUCAAAGUAGAAGGCCUAAAAA [Garnet 90] | 78.8 nM | 198 nM
4 | AAGAAACAUGAGGAUCACCCAUGUAGAAAUAUGGGAGGAUAUACGAGGACGAAAGUCAAAGUAGAAGGCCUAAGAA [Mat - Same State 1 - Meechl mod - D130] | 19.6 nM | 66.9 nM
5 | AAGAAACAUGAGGAUCACCCAUGUGAAAGAAACACAGGAUAUGCGAAAAGAAACAAAGAAGCAGAAGGGUGAAGAA [Mat - Same State 1 - Tesla mod - 58] | 22.6 nM | 39.2 nM
6 | AAGGAACAUGAGGAUCACCCAUGUAAAAAAUAUGGAGGAUAUACUAGAAGAAACAAAAUAGUAGAAGGCCAAAAAA [75%, Ex sub1, 30] | 16.5 nM | 20.6 nM
7 | AAUACACAUAGUCAGGAUAUCAAAAAUAAGACAUGAGGAUCACCCAUGUAAUAAGUAAAAGUAAAUGAGAAGGGACAGGGUGAAA [JR_SS002_Sub402] | 33 nM | 79.3 nM
8 | AAUAUACAUGAGGAUCACCCAUGUUAGGUGGGUCAAGGAUAUCAAAAUAAAUAAAGAACAUGAGAAGGUGAAUAAA [JR_SS001_Sub018] | 207 nM | 161 nM
9 | AAUAUAUUAAGUGAGGAUAUCAUAGGAAAAACAUGAGGAUCACCCAUGUGGGAAACCUGGUCGGGUGAGAAGGCACUUAAUAUAU [Samwise Clockwise 30 - Jieux - Same State 2] | 37.5 nM | 217 nM
10 | AAUAUAUUAAGUGAGGAUAUCGAGGAAAAAACAUGAGGAUCACCCAUGUGGGUAAAAAAAAAAAGUGAGAAGGUGCUUAAUAUAU [Samwise Clockwise 10 - Jieux - Same State 2] | 32.3 nM | 128 nM
11 | AAUGAACAUGAGGAUCACCCAUGUUCUAAUAGUUGAGGAUAUAUGGGUGAAAAUAGCACGGUAGAAGGCGAGUGUA [SameState1 Malc#18] | 249 nM | 104 nM
12 | ACUAUACAUGAGGAUCACCCAUGUCAGGUGGGACUAGGAUAUCAUAAGCCAGAGUAAGAAUGAGAAGGAGUAGAAA [JR_SS001_Sub306] | 143 nM | 151 nM
13 | AGAAAACAUGAGGAUCACCCAUGUCAGAAAUGGCAAGGAUAUAGAAAAGAAAAAGAAAAACUAGAAGGUGCAAAAG [Meechl SS1 R2 m2] | 187 nM | 153 nM
14 | AGAAAUAAAAGAGAGGAUAUCCAAAAGAAAACAUGAGGAUCACCCAUGUGAAACAAAACAAAAUGGGAGAAGGCUCAAAAUAAGA [Topaz 16] | 31 nM | 137 nM
15 | AGAAAUAAAAGAGAGGAUAUCCAAAAUAAAACAUGAGGAUCACCCAUGUCUACGAAAGUAGGAUGGGAGAAGGCUCAAAAUAAAG [80% More Helter Skelter 2 + Hairpin] | 120 nM | 14.8 nM
16 | AGAAAUAAAAGAGAGGAUAUCCAAAAUAAAACAUGAGGAUCACCCAUGUGAAACAAAACAAAAUGGGAGAAGGCUCAAAAUAAGA [Topaz 17] | 15.7 nM | 33.9 nM
17 | AGAAAUAAAAGCUAGGAUAUCCAAAAGAAAACAUGAGGAUCACCCAUGUAAAAGAAAAUAAAGUGGGAGAAGGAGCAAAAUAAGA [Starry modified] | 18 nM | 35.6 nM
18 | AGAAAUAAAAGGCAGGAUAUCCAAAAGAAAACAUGAGGAUCACCCAUGUAAAAGAAAAUAAAAUGGGAGAAGGGCCAAAAUAAAG [Fisker 73] | 13.1 nM | 42.3 nM
19 | AGAAUAAAAAGACAGGAUAUCCAAAAGAAAACAUGAGGAUCACCCAUGUAAAAAAAAAUAAAAUGGGAGAAGGGUCAAAAUAAAG [Mat - Same State 2 - JL mod - D69] | 18 nM | 44 nM
20 | AGAUCUAGAAGGUAGGAUAUGUGUAAAAAUACAUGAGGAUCACCCAUGUGAUGAAUAAAAAGAAAAUAGAAGGACCAUCUAGAUC [Cross swing 3] | 16.8 nM | 119 nM
21 | AGGAAACAUGAGGAUCACCCAUGUAAAAAUAUCACAGGAUAUGGAAACACGAAAGUGAAACCAGAAGGGUGAAAAG [77%, Mat - Mod of Eli, 13] | 13.2 nM | 32 nM

Row | Sequence | apparent KD of MS2 coat protein [1] | apparent KD of MS2 coat protein [2]
22 | AGGAAACAUGAGGAUCACCCAUGUAAAAAUAUGGAAGGAUAUGGAAACACGAAAGUGAAACCAGAAGGUCUGAAAA [77%, Mat - Mod of Eli, 20] | 16.6 nM | 23.3 nM
23 | AGGAAACAUGAGGAUCACCCAUGUAAAAUAAUGGGAGGAUAUGCGAAAAGAAAAAGAAAAGCAGAAGGCCUAAGAA [62%, Something completely different, 4] | 18.6 nM | 98.6 nM
24 | AGGAAACAUGAGGAUCACCCAUGUAAAUAUGGGCGAGGAUAUCGAAAGAAAAGAAAGAAACGAGAAGGCGCAAAAG [GU on the end] | 49.2 nM | 295 nM
25 | AGGAAACAUGAGGAUCACCCAUGUAUAAAAAUGGGAGGAUAUACUAAGACGAAAGUCAUAGUAGAAGGCCUAAAAA [76%, Meechl, 8] | 24.3 nM | 52.6 nM
26 | AGUAAACAUGAGGAUCACCCAUGUGGUGGCCCAUGAGGAUAUCCAUGCGCAAUGCGCAUAGGAGAAGGCAUAGCCA [Enenerla] | 125 nM | 52.6 nM
27 | AGUCAACAUGAGGAUCACCCAUGUCUGAGGGCAUGAGGAUAUCUAGAUGGGCAGCAUGAUAGAGAAGGCAUGCGCC [Betea] | 185 nM | 199 nM
28 | AUAAAACAUGAGGAUCACCCAUGUAGAAAUAUGGGAGGAUAUACAAGGACGAAAGUCAAGGUAGAAGGCCUAAAAG [Mat - Same State 1 - Meechl mod - D119] | 25 nM | 126 nM
29 | AUAAAACAUGAGGAUCACCCAUGUCAGAAAUGGCAAGGAUAUAGAAAAUAAAAAUAAAAACUAGAAGGUGCAAAAU [Meechl SS1 R2 m1] | 74.9 nM | 198 nM
30 | AUAAAAGAAAGGCAGGAUAUCCAAAGAAAAACAUGAGGAUCACCCAUGUAAAGAAAGAAAAAGUGGGAGAAGGGCCAAAAGAAUA [73%, More Fisker Same State 2, D3, 3] | 25.3 nM | 27.6 nM
31 | AUAAAUAAAGAUCAGGAUAUUAUAAAGAUAACAUGAGGAUCACCCAUGUAAAACAAAAUUAUGGGUAAGAAGGGAUCAAAUAAAU [SS2 M 20] | 46.9 nM | 184 nM
32 | AUAAAUAAAGUUAAGGAUAUUAUAAAGAAAACAUGAGGAUCACCCAUGUAAAAGAAAAUAGUGGGUAAGAAGGUAACAAAUAAAU [SS2 M 18] | 23.1 nM | 42.7 nM
33 | AUAACACAUGAGGAUCACCCAUGUAGAUACAAGUCAGGAUAUGCAACCUCAUGAAAAAAAGCAGAAGGGACAAUAA [SS 1 Tesla 3] | 27.5 nM | 85.4 nM
34 | AUAACACAUGAGGAUCACCCAUGUAGAUACCCGUCAGGAUAUGCAAAGAAAAUAAACAAAGCAGAAGGGACAAUAA [SS 1 Tesla 2] | 21.2 nM | 30.4 nM
35 | AUACAAACGUAUGAGGAUAUCCUUAAUAAAACAUGAGGAUCACCCAUGUGAAUAAAAUAACAAUUGGAGAAGGCAUACGUACAAU [Mat - Same state - Malcolm Mod - D137] | 16.6 nM | 18.9 nM
36 | AUAUAUAUAAGGUAGGAUAUACUAAAGUAAACAUGAGGAUCACCCAUGUAAAGAAAGAAACUCAUGUAGAAGGACCAUAUAUAUAU [Ex 6 sub 1] | 24.8 nM | 163 nM
37 | AUAUAUAUAAGGUAGGAUAUUCUAAAGUAAACAUGAGGAUCACCCAUGUAAAGAAAGAAACUCAUGGAGAAGGACCAUAUAUAUA [Modifying Tesla's highscorer (77%) - Adding G segment] | 19.9 nM | 84.8 nM
38 | CAAAACAAAACAUAGGAUAUCAAAACAAAAACAUGAGGAUCACCCAUGUGGAAACAUGAGAAGGAUGAGAAGGAAAACAAAACAA [Meechl SS2 R2 m7] | 25 nM | 49.6 nM
39 | CAGAUACAUGAGGAUCACCCAUGUUAGGUAGAACAAGGAUAUCUAGAUAGAUAAAAAUAUAGAGAAGGUGUAUAAC [JR_SS001_Sub207] | 19.8 nM | 24.2 nM
40 | CAGCGCUGUCGAGAGGAUAUGCGGUGAAGGACAUGAGGAUCACCCAUGUAAGCGAUAGCAUUACGGUAGAAGGCUCUGCAGCUGC [Ceriso] | 95.7 nM | 143 nM
41 | CAUAGACAUGAGGAUCACCCAUGUAGAAUUAUGGGAGGAUAUACAAAGACGAGAGUCAGAGUAGAAGGCCUAGGAC [salish99-ss1-164] | 18.9 nM | 28.3 nM
42 | CCGAGGAAGAGAGAGGAUAUCCAAAGGAAAACAUGAGGAUCACCCAUGUAAAAGGUAGGAAAUUGGGAGAAGGCUCAAGAGAGAG [salish99-ss2-072] | 38.7 nM | 47.1 nM

From the supplement of paper PMC9170038
